Among the data in the RNAGym collection of RNA variant scans (doi:10.7554/elife.80360) are self-cleavage values, retold here.

The chains are these.
B1: HDV Ribozyme (parent)
chain: GGCCGGCAUGGUCCCAGCCUCCUCGCUGGCGCCGGCUGGGCAACAUUCCGAGGGGACCGUCCCCUCGGUAAUGGCGAAUGGGACCCA

In the data set the parent is B1. In words: self-cleavage, relative activity (ratio to wild type); higher = more cleavage; co-transcriptional.
For GGCCGGCAUGGUCCCAGCCUCCUCGCUGGCGCCGGCUCGGCAACAUUCCGAGGGGACCGUCCCCUCGGUAAUGGAGAAUGGGACCCA [G38C C75A], the self-cleavage is 0.
As for GGCCGGCAUGGUCCCAGCCUCCUCGCUGGCGCCGGCUCGGCAACAUUCCGAGGGGACCGUCCCCUCGGUAAUGGGGAAUGGGACCCA [G38C C75G], the figure is 0.104; as for GGCCGGCAUGGUCCCAGCCUCCUCGCUGGCGCCGGCUCGGCAACAUUCCGAGGGGACCGUCCCCUCGGUAAUGGCGAAUGGGACCAA [G38C C86A], 0.136.
Next, GGCCGGCAUGGUCCCAGCCUCCUCGCUGGCGCCGGCUCGGCAACAUUCCGAGGGGACCGUCCCCUCGGUAAUGGCGAAUGGGACCUA [G38C C86U]: 0.145; GGCCGGCAUGGUCCCAGCCUCCUCGCUGGCGCCGGCUCGGCAACAUUCCGAGGGGACCGUCCCCUCGGUAAUGGCGAAUGAGACCCA [G38C G81A]: 0; GGCCGGCAUGGUCCCAGCCUCCUCGCUGGCGCCGGCUUGGCAACAUUCCGAGGGGACCGUCCCCUCGGUAAUGGCGAAUGGGACCCA [G38U]: 0.255.
As for GGCCGGCAUGGUCCCAGCCUCCUCGCUGGCGCCGGCUCGGCAACAUUCCGAGGGGACCAUCCCCUCGGUAAUGGCGAAUGGGACCCA [G38C G59A], the figure is 0.199; as for GGCCGGCAUGGUCCCAGCCUCCUCGCUGGCGCCGGCUCGGCAACAUUCCGAGGGGACCUUCCCCUCGGUAAUGGCGAAUGGGACCCA [G38C G59U], 0.233; as for GGCCGGCAUGGUCCCAGCCUCCUCGCUGGCGCCGGCUUGGCAACAUUCCGAGGGGACCGUCCCCUCGGUAAUGGCGAAUGGGACCCC [G38U A87C], 0.231.
Take GGCCGGCAUGGUCCCAGCCUCCUCGCUGGCGCCGGCUUGGCAACAUUCCGAGGGGACCGUCCCCUCGGUAAUGGCGAAUGGGACCCU [G38U A87U]: the self-cleavage was 0.255.
Take GGCCGGCAUGGUCCCAGCCUCCUCGCUGGCGCCGGCUCGGCAACAUUCCGAGGGGACCGUCCCCUCAGUAAUGGCGAAUGGGACCCA [G38C G67A]: the self-cleavage was determined as 0.194.
Next, GGCCGGCAUGGUCCCAGCCUCCUCGCUGGCGCCGGCUCGGCAACAUUCCGAGGGGACCGUCCCCUCCGUAAUGGCGAAUGGGACCCA [G38C G67C]: 0.157; GGCCGGCAUGGUCCCAGCCUCCUCGCUGGCGCCGGCUCGGCAACAUUCCGAGGGGACCGUCCCCUCUGUAAUGGCGAAUGGGACCCA [G38C G67U]: 0.366.
Next, GGCCGGCAUGGUCCCAGCCUCCUCGCUGGCGCCGGCUCGGCAACAUUCCGAGGGGACCGUCCCCUCGGUAAUUGCGAAUGGGACCCA [G38C G73U]: 0.13; GGCCGGCAUGGUCCCAGCCUCCUCGCUGGCGCCGGCUUGGCAAAAUUCCGAGGGGACCGUCCCCUCGGUAAUGGCGAAUGGGACCCA [G38U C44A]: 0.16.
Next, GGCCGGCAUGGUCCCAGCCUCCUCGCUGGCGCCGGCUUGGUAACAUUCCGAGGGGACCGUCCCCUCGGUAAUGGCGAAUGGGACCCA [G38U C41U]: 0.623.
As for GGCCGGCAUGGUCCCAGCCUCCUCGCUGGCGCCGGCUUGGAAACAUUCCGAGGGGACCGUCCCCUCGGUAAUGGCGAAUGGGACCCA [G38U C41A], the self-cleavage worked out at 0.407.
As for GGCCGGCAUGGUCCCAGCCUCCUCGCUGGCGCCGGCUCGGCAACAUUCCGAGGGCACCGUCCCCUCGGUAAUGGCGAAUGGGACCCA [G38C G55C], the figure is 0.46.
As to GGCCGGCAUGGUCCCAGCCUCCUCGCUGGCGCCGGCUCGGCAACAUUCCGAGGGAACCGUCCCCUCGGUAAUGGCGAAUGGGACCCA [G38C G55A], the self-cleavage was determined as 0.124.
Consider GGCCGGCAUGGUCCCAGCCUCCUCGCUGGCGCCGGCUCAGCAACAUUCCGAGGGGACCGUCCCCUCGGUAAUGGCGAAUGGGACCCA [G38C G39A], for which the self-cleavage is 0.113.
Next, GGCCGGCAUGGUCCCAGCCUCCUCGCUGGCGCCGGCUCUGCAACAUUCCGAGGGGACCGUCCCCUCGGUAAUGGCGAAUGGGACCCA [G38C G39U]: 0.0396; GGCCGGCAUGGUCCCAGCCUCCUCGCUGGCGCCGGCUUGGCAACAUUCCGAGGGGACCGUCCCCUCGGUCAUGGCGAAUGGGACCCA [G38U A70C]: 0.158; GGCCGGCAUGGUCCCAGCCUCCUCGCUGGCGCCGGCUUGGCAACAUUCCGAGGGGACCGUCCCCUCGGUGAUGGCGAAUGGGACCCA [G38U A70G]: 0.227.
Next, GGCCGGCAUGGUCCCAGCCUCCUCGCUGGCGCCGGCUCGGCAACAUUCCGACGGGACCGUCCCCUCGGUAAUGGCGAAUGGGACCCA [G38C G52C]: 0; GGCCGGCAUGGUCCCAGCCUCCUCGCUGGCGCCGGCUCGGCAACAUUCCGAUGGGACCGUCCCCUCGGUAAUGGCGAAUGGGACCCA [G38C G52U]: 0.249; GGCCGGCAUGGUCCCAGCCUCCUCGCUGGCGCCGGCUCGGCAACAAUCCGAGGGGACCGUCCCCUCGGUAAUGGCGAAUGGGACCCA [G38C U46A]: 0.101.
Next, GGCCGGCAUGGUCCCAGCCUCCUCGCUGGCGCCGGCUUGGCAACAUUCCGAGGGGACCGUCCCCUCGGUAAUGGCGAGUGGGACCCA [G38U A78G]: 0.203.
In the case of GGCCGGCAUGGUCCCAGCCUCCUCGCUGGCGCCGGCUCGGCAACAUGCCGAGGGGACCGUCCCCUCGGUAAUGGCGAAUGGGACCCA [G38C U47G], the self-cleavage came to 0.225.
Next, GGCCGGCAUGGUCCCAGCCUCCUCGCUGGCGCCGGCUCGGCAACAUUCCGAGGGGACCGUCCCCUCGGUAAUGGCGAAUGGGAACCA [G38C C84A]: 0.18.
GGCCGGCAUGGUCCCAGCCUCCUCGCUGGCGCCGGCUCGGCAACAUUCCCAGGGGACCGUCCCCUCGGUAAUGGCGAAUGGGACCCA [G38C G50C]: the self-cleavage was found to be 0.35.
Turning to GGCCGGCAUGGUCCCAGCCUCCUCGCUGGCGCCGGCUUGGCUACAUUCCGAGGGGACCGUCCCCUCGGUAAUGGCGAAUGGGACCCA [G38U A42U], the self-cleavage turned out to be 0.261.
As for GGCCGGCAUGGUCCCAGCCUCCUCGCUGGCGCCGGCUUGGCGACAUUCCGAGGGGACCGUCCCCUCGGUAAUGGCGAAUGGGACCCA [G38U A42G], the figure is 0.
